Assay results: article PMC6021441, “Structural basis of the correct subunit assembly, aggregation, and intracellular degradation of nylon hydrolase” (Scientific Reports, 2018)
Where “and” joins values, the source holds several entries; their conditions need not be identical. Identical values can stand only once.

Target: the molecule itself
Test: AUC; sedimentation velocity (40,000 rpm) and sedimentation equilibrium (14,000 rpm); each NylC enzyme 0.34 mg ml^-1 in phosphate buffer, 20 °C; self-association of the monomer units

Row | Molecule | stoichiometry N
1 | nylon hydrolase NylCp2 (wild type, Arthrobacter plasmid pOAD2-encoded NylC), active enzyme: alpha-beta heterodimer (enzyme, NylCp2, alpha subunit (27 kDa) made by autocleavage of the 355-residue precursor between Asn266 and Thr267; NylCp2, beta subunit (9 kDa) made by autocleavage of the 355-residue precursor between Asn266 and Thr267; also called wild-type NylCp2; monomer molecule A-D; source: E. coli JM109, purified (ammonium sulfate fractionation, anion-exchange, gel filtration)) chain 1: MNTTPVHALTDIDGGIAVDPAPRLAGPPVFGGPGNDAFDLAPVRSTGREMLRFDFPGVSIGAAHYEEGPTGATVIHIPAGARTAVDARGGAVGLSGGYDFNHAICLAGGAGYGLEAGAGVSDALLERLEHRTGFAELQLVSSAVIYDFSARSTAVYPDKALGRAALEFAVPGEFPQGRAGAGMSASAGKVDWDRTEITGQGAAFRRLGDVRILAVVVPNPVGVIVDRAGTVVRGNYDAQTGVRRHPVFDYQEAFAEQVPPVTEAGN chain 2: TTISAIVTNVRMSPVELNQFAKQVHSSMHRGIQPFHTDMDGDTLFAVTTDEIDLPTTPGSSRGRLSVNATALGAIASEVMWDAVLEAGK | 3 and 2
2 | NylCp2-G^122Y^130A^36Q^263 mutant enzyme (D122G/H130Y/D36A/E263Q), alpha-beta heterodimer (enzyme, Arthrobacter, NylCp2 alpha subunit with four substitutions; NylCp2 beta subunit; also called NylC-G^122Y^130A^36Q^263; source: E. coli JM109, purified (ammonium sulfate fractionation, anion-exchange, gel filtration)) chain 1: MNTTPVHALTDIDGGIAVDPAPRLAGPPVFGGPGNAAFDLAPVRSTGREMLRFDFPGVSIGAAHYEEGPTGATVIHIPAGARTAVDARGGAVGLSGGYDFNHAICLAGGAGYGLEAGAGVSGALLERLEYRTGFAELQLVSSAVIYDFSARSTAVYPDKALGRAALEFAVPGEFPQGRAGAGMSASAGKVDWDRTEITGQGAAFRRLGDVRILAVVVPNPVGVIVDRAGTVVRGNYDAQTGVRRHPVFDYQEAFAEQVPPVTQAGN chain 2: TTISAIVTNVRMSPVELNQFAKQVHSSMHRGIQPFHTDMDGDTLFAVTTDEIDLPTTPGSSRGRLSVNATALGAIASEVMWDAVLEAGK | 4
3 | nylon hydrolase NylCA (wild type, Agromyces), active enzyme: alpha-beta heterodimer (enzyme, NylCA of Agromyces, alpha subunit; NylCA of Agromyces, beta subunit; source: E. coli clone (plasmid pSKRC4), purified to homogeneity as previously reported) chain 1: MNTTPVHALTDIDGGIAVDPAPRLAGPPVFGGPGNDAFDLAPVRSTGREMLRFDFPGVSIGAAHYEEGPTGATVIHIPAGARTAVDARGGAVGLSGGYDFNHAICLAGGASYGLEAGAGVSGALLERLEYRTGFAEAQLVSSAVIYDFSARSTAVYPDKALGRAALEFAVPGEFPQGRAGAGMSASAGKVDWDRTEITGQGAAFRRLGDVRILAVVVPNPVGVIMDRAGTVVRGNYDAQTGVRRHPVFDYQEAFAEQVPPVTEAGN chain 2: TTISAIVTNVRMSPVELNQFAKQVHSSMHRGIQPFHTDMDGDTLFAVTTDEIDLPTTPGSSRGRLSVNATALGAIASEVMWDAVLEAGK | 4
4 | NylCp2-A^137 mutant (L137A), uncleaved precursor (enzyme, Arthrobacter, UniProt Q79F77 1-355, looked up, NylCp2 with L137A, obtained as the uncleaved precursor (36 kDa; 355 residues); source: E. coli JM109, purified (ammonium sulfate fractionation, anion-exchange, gel filtration)) MNTTPVHALTDIDGGIAVDPAPRLAGPPVFGGPGNDAFDLAPVRSTGREMLRFDFPGVSIGAAHYEEGPTGATVIHIPAGARTAVDARGGAVGLSGGYDFNHAICLAGGAGYGLEAGAGVSDALLERLEHRTGFAEAQLVSSAVIYDFSARSTAVYPDKALGRAALEFAVPGEFPQGRAGAGMSASAGKVDWDRTEITGQGAAFRRLGDVRILAVVVPNPVGVIVDRAGTVVRGNYDAQTGVRRHPVFDYQEAFAEQVPPVTEAGNTTISAIVTNVRMSPVELNQFAKQVHSSMHRGIQPFHTDMDGDTLFAVTTDEIDLPTTPGSSRGRLSVNATALGAIASEVMWDAVLEAGK | 2
5 | NylCp2-G^122A^137 mutant (D122G/L137A), mixture of precursor and alpha and beta subunits (enzyme, Arthrobacter, UniProt Q79F77 1-355, looked up, NylCp2 with D122G and L137A; obtained as a mixture of the uncleaved precursor and the alpha (to N266) and beta (from T267) subunits; Written as the one-chain precursor; part of the sample was cleaved at Asn266/Thr267; source: E. coli JM109, purified (ammonium sulfate fractionation, anion-exchange, gel filtration)) MNTTPVHALTDIDGGIAVDPAPRLAGPPVFGGPGNDAFDLAPVRSTGREMLRFDFPGVSIGAAHYEEGPTGATVIHIPAGARTAVDARGGAVGLSGGYDFNHAICLAGGAGYGLEAGAGVSGALLERLEHRTGFAEAQLVSSAVIYDFSARSTAVYPDKALGRAALEFAVPGEFPQGRAGAGMSASAGKVDWDRTEITGQGAAFRRLGDVRILAVVVPNPVGVIVDRAGTVVRGNYDAQTGVRRHPVFDYQEAFAEQVPPVTEAGNTTISAIVTNVRMSPVELNQFAKQVHSSMHRGIQPFHTDMDGDTLFAVTTDEIDLPTTPGSSRGRLSVNATALGAIASEVMWDAVLEAGK | 3

target: nylon hydrolase NylCK (wild type, Kocuria), active enzyme: alpha-beta heterodimer (Kocuria); test: as above

Row | Molecule | stoichiometry N
6 | nylon hydrolase NylCK (wild type, Kocuria), active enzyme: alpha-beta heterodimer (from UniProt Q79F77 1-266; Q79F77 267-355) | 4

Target: the molecule itself
Test: crystal structure; sitting-drop vapor diffusion, ammonium sulfate, 0.1 M HEPES pH 7.5, 0.2 M NaCl, 25% glycerol; space group C222_(1), two molecules (A/B dimer) in the asymmetric unit, tetramer by the crystallographic two-fold axis

Row | Molecule | stoichiometry N
7 | nylon hydrolase NylCp2 (wild type, Arthrobacter plasmid pOAD2-encoded NylC), active enzyme: alpha-beta heterodimer (enzyme, NylCp2, alpha subunit (27 kDa) made by autocleavage of the 355-residue precursor between Asn266 and Thr267; NylCp2, beta subunit (9 kDa) made by autocleavage of the 355-residue precursor between Asn266 and Thr267; also called wild-type NylCp2; monomer molecule A-D; source: E. coli JM109, purified (ammonium sulfate fractionation, anion-exchange, gel filtration)) chain 1: MNTTPVHALTDIDGGIAVDPAPRLAGPPVFGGPGNDAFDLAPVRSTGREMLRFDFPGVSIGAAHYEEGPTGATVIHIPAGARTAVDARGGAVGLSGGYDFNHAICLAGGAGYGLEAGAGVSDALLERLEHRTGFAELQLVSSAVIYDFSARSTAVYPDKALGRAALEFAVPGEFPQGRAGAGMSASAGKVDWDRTEITGQGAAFRRLGDVRILAVVVPNPVGVIVDRAGTVVRGNYDAQTGVRRHPVFDYQEAFAEQVPPVTEAGN chain 2: TTISAIVTNVRMSPVELNQFAKQVHSSMHRGIQPFHTDMDGDTLFAVTTDEIDLPTTPGSSRGRLSVNATALGAIASEVMWDAVLEAGK | 4
8 | NylCp2-G^122 mutant enzyme (D122G), alpha-beta heterodimer (enzyme, Arthrobacter, NylCp2 alpha subunit with D122G; NylCp2 beta subunit; also called Gly122 enzyme; source: E. coli JM109, purified (ammonium sulfate fractionation, anion-exchange, gel filtration)) chain 1: MNTTPVHALTDIDGGIAVDPAPRLAGPPVFGGPGNDAFDLAPVRSTGREMLRFDFPGVSIGAAHYEEGPTGATVIHIPAGARTAVDARGGAVGLSGGYDFNHAICLAGGAGYGLEAGAGVSGALLERLEHRTGFAELQLVSSAVIYDFSARSTAVYPDKALGRAALEFAVPGEFPQGRAGAGMSASAGKVDWDRTEITGQGAAFRRLGDVRILAVVVPNPVGVIVDRAGTVVRGNYDAQTGVRRHPVFDYQEAFAEQVPPVTEAGN chain 2: TTISAIVTNVRMSPVELNQFAKQVHSSMHRGIQPFHTDMDGDTLFAVTTDEIDLPTTPGSSRGRLSVNATALGAIASEVMWDAVLEAGK | 4
9 | NylCp2-V^122 mutant enzyme (D122V), alpha-beta heterodimer (enzyme, Arthrobacter, NylCp2 alpha subunit with D122V; NylCp2 beta subunit; source: E. coli JM109, purified (ammonium sulfate fractionation, anion-exchange, gel filtration)) chain 1: MNTTPVHALTDIDGGIAVDPAPRLAGPPVFGGPGNDAFDLAPVRSTGREMLRFDFPGVSIGAAHYEEGPTGATVIHIPAGARTAVDARGGAVGLSGGYDFNHAICLAGGAGYGLEAGAGVSVALLERLEHRTGFAELQLVSSAVIYDFSARSTAVYPDKALGRAALEFAVPGEFPQGRAGAGMSASAGKVDWDRTEITGQGAAFRRLGDVRILAVVVPNPVGVIVDRAGTVVRGNYDAQTGVRRHPVFDYQEAFAEQVPPVTEAGN chain 2: TTISAIVTNVRMSPVELNQFAKQVHSSMHRGIQPFHTDMDGDTLFAVTTDEIDLPTTPGSSRGRLSVNATALGAIASEVMWDAVLEAGK | 4
10 | NylCp2-K^122 mutant enzyme (D122K), alpha-beta heterodimer (enzyme, Arthrobacter, NylCp2 alpha subunit with D122K; NylCp2 beta subunit; source: E. coli JM109, purified (ammonium sulfate fractionation, anion-exchange, gel filtration)) chain 1: MNTTPVHALTDIDGGIAVDPAPRLAGPPVFGGPGNDAFDLAPVRSTGREMLRFDFPGVSIGAAHYEEGPTGATVIHIPAGARTAVDARGGAVGLSGGYDFNHAICLAGGAGYGLEAGAGVSKALLERLEHRTGFAELQLVSSAVIYDFSARSTAVYPDKALGRAALEFAVPGEFPQGRAGAGMSASAGKVDWDRTEITGQGAAFRRLGDVRILAVVVPNPVGVIVDRAGTVVRGNYDAQTGVRRHPVFDYQEAFAEQVPPVTEAGN chain 2: TTISAIVTNVRMSPVELNQFAKQVHSSMHRGIQPFHTDMDGDTLFAVTTDEIDLPTTPGSSRGRLSVNATALGAIASEVMWDAVLEAGK | 4
11 | NylCp2-G^122Y^130 mutant enzyme (D122G/H130Y), alpha-beta heterodimer (enzyme, Arthrobacter, NylCp2 alpha subunit with D122G and H130Y; NylCp2 beta subunit; also called NylC-G^122Y^130; source: E. coli JM109, purified (ammonium sulfate fractionation, anion-exchange, gel filtration)) chain 1: MNTTPVHALTDIDGGIAVDPAPRLAGPPVFGGPGNDAFDLAPVRSTGREMLRFDFPGVSIGAAHYEEGPTGATVIHIPAGARTAVDARGGAVGLSGGYDFNHAICLAGGAGYGLEAGAGVSGALLERLEYRTGFAELQLVSSAVIYDFSARSTAVYPDKALGRAALEFAVPGEFPQGRAGAGMSASAGKVDWDRTEITGQGAAFRRLGDVRILAVVVPNPVGVIVDRAGTVVRGNYDAQTGVRRHPVFDYQEAFAEQVPPVTEAGN chain 2: TTISAIVTNVRMSPVELNQFAKQVHSSMHRGIQPFHTDMDGDTLFAVTTDEIDLPTTPGSSRGRLSVNATALGAIASEVMWDAVLEAGK | 4
12 | NylCp2-Y^130 mutant enzyme (H130Y), alpha-beta heterodimer (enzyme, Arthrobacter, NylCp2 alpha subunit with H130Y; NylCp2 beta subunit; source: E. coli JM109, purified (ammonium sulfate fractionation, anion-exchange, gel filtration)) chain 1: MNTTPVHALTDIDGGIAVDPAPRLAGPPVFGGPGNDAFDLAPVRSTGREMLRFDFPGVSIGAAHYEEGPTGATVIHIPAGARTAVDARGGAVGLSGGYDFNHAICLAGGAGYGLEAGAGVSDALLERLEYRTGFAELQLVSSAVIYDFSARSTAVYPDKALGRAALEFAVPGEFPQGRAGAGMSASAGKVDWDRTEITGQGAAFRRLGDVRILAVVVPNPVGVIVDRAGTVVRGNYDAQTGVRRHPVFDYQEAFAEQVPPVTEAGN chain 2: TTISAIVTNVRMSPVELNQFAKQVHSSMHRGIQPFHTDMDGDTLFAVTTDEIDLPTTPGSSRGRLSVNATALGAIASEVMWDAVLEAGK | 4
13 | NylCp2-R^122 mutant enzyme (D122R), alpha-beta heterodimer (enzyme, Arthrobacter, NylCp2 alpha subunit with D122R; NylCp2 beta subunit; source: E. coli JM109, purified (ammonium sulfate fractionation, anion-exchange, gel filtration)) chain 1: MNTTPVHALTDIDGGIAVDPAPRLAGPPVFGGPGNDAFDLAPVRSTGREMLRFDFPGVSIGAAHYEEGPTGATVIHIPAGARTAVDARGGAVGLSGGYDFNHAICLAGGAGYGLEAGAGVSRALLERLEHRTGFAELQLVSSAVIYDFSARSTAVYPDKALGRAALEFAVPGEFPQGRAGAGMSASAGKVDWDRTEITGQGAAFRRLGDVRILAVVVPNPVGVIVDRAGTVVRGNYDAQTGVRRHPVFDYQEAFAEQVPPVTEAGN chain 2: TTISAIVTNVRMSPVELNQFAKQVHSSMHRGIQPFHTDMDGDTLFAVTTDEIDLPTTPGSSRGRLSVNATALGAIASEVMWDAVLEAGK | 4
